Data from article PMC2756588.

How the values were obtained:
Test in all cases: SPOT array
Bud14, P27637 = target: T1, Bud14, P27637; settings: median of control spots 956
T1 sequence (P27637 247-328, looked up): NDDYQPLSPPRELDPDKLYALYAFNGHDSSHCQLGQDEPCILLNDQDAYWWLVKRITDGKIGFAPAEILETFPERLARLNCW

Lsb1, P53281 = target: T2, Lsb1, P53281; settings: median of control spots 388
T2 sequence (P53281 45-122, looked up): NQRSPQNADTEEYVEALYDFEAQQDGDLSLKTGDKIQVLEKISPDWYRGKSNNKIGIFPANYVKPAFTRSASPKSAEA

Pin3, Q06449 = target: T3, Pin3, Q06449; settings: median of control spots 2171
T3 sequence (Q06449 53-122, looked up): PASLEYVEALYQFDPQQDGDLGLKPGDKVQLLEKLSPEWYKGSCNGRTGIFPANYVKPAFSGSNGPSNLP

Lsb3, P43603 = target: T4, Lsb3, P43603; settings: median of control spots 406
T4 sequence (P43603 385-451, looked up): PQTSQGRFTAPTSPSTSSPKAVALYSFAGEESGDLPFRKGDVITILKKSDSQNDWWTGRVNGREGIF

GST = settings: median of control spots 978
Cyk3, Q07533 = target: T5, Cyk3, Q07533; settings: median of control spots 1451
T5 sequence (Q07533 1-83, looked up): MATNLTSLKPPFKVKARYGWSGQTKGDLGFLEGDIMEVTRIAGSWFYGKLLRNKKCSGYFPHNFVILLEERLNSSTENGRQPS

Cdc25, P04821 = target: T6, Cdc25, P04821; settings: median of control spots 969
T6 sequence (P04821 50-136, looked up): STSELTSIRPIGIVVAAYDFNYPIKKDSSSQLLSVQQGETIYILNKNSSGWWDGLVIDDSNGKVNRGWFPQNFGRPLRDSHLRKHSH

Abp1, P15891 = target: T7, Abp1, P15891; settings: median of control spots 935
T7 sequence (P15891 535-592, looked up): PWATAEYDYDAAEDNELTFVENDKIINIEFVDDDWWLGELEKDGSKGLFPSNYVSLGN

Hof1, Q05080 = target: T8, Hof1, Q05080; settings: median of control spots 4086
T8 sequence (Q05080 590-669, looked up): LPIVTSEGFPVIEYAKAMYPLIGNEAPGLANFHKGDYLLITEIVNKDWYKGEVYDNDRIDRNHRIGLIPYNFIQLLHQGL

Bzz1-1, P38822 = target: T9, Bzz1-1, P38822; settings: median of control spots 4446
T9 sequence (P38822 478-572, looked up): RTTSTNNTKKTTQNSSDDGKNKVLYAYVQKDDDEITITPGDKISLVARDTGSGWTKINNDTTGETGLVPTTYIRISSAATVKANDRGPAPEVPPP

Nbp2, Q12163 = target: T10, Nbp2, Q12163; settings: median of control spots 357
T10 sequence (Q12163 103-180, looked up): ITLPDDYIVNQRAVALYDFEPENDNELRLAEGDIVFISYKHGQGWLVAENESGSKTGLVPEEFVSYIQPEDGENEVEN

Lsb4, P32793 = target: T11, Lsb4, P32793; settings: median of control spots 397
T11 sequence (P32793 402-468, looked up): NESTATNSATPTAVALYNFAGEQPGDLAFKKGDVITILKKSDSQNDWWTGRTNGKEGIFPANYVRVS

Hse1, P38753 = target: T12, Hse1, P38753; settings: median of control spots 1727
T12 sequence (P38753 208-285, looked up): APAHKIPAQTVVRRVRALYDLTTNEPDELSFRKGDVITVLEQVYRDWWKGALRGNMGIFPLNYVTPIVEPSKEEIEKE

Sla1-3, P32790 = target: T13, Sla1-3, P32790; settings: median of control spots 5475
T13 sequence (P32790 344-424, looked up): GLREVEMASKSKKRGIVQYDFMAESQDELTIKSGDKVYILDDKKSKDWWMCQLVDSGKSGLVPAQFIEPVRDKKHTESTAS

Boi2, P39969 = target: T14, Boi2, P39969; settings: median of control spots 1161
T14 sequence (P39969 32-116, looked up): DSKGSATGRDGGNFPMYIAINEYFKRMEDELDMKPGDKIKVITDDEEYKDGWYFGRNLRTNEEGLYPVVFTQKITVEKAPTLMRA

Myo5, Q04439 = target: T15, Myo5, Q04439; settings: median of control spots 471
T15 sequence (Q04439 1072-1160, looked up): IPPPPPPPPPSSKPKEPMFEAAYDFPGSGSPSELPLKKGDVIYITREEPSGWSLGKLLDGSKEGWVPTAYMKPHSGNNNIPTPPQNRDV

Boi1, P38041 = target: T16, Boi1, P38041; settings: median of control spots 1162
T16 sequence (P38041 1-86, looked up): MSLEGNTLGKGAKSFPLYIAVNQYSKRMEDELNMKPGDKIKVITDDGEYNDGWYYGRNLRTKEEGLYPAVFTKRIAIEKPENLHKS

Bem1-1, P29366 = settings: median of control spots 4282
Bem1-2, P29366 = settings: median of control spots 4347
Sla1-2, P32790 = target: T17, Sla1-2, P32790; settings: median of control spots 712
T17 sequence (P32790 60-140, looked up): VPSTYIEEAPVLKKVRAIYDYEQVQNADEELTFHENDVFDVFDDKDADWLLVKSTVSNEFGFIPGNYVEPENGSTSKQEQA

Pex13, P80667 = target: T18, Pex13, P80667; settings: median of control spots 1341
T18 sequence (P80667 295-386, looked up): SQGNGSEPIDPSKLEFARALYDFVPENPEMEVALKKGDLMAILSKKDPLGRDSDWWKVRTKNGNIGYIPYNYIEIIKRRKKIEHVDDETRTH

Bbc1, P47068 = target: T19, Bbc1, P47068; settings: median of control spots 796
T19 sequence (P47068 1-78, looked up): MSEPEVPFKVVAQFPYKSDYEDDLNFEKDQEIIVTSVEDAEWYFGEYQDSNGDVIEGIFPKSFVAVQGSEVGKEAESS

Fus1, P11710 = target: T20, Fus1, P11710; settings: median of control spots 1200
T20 sequence (P11710 432-512, looked up): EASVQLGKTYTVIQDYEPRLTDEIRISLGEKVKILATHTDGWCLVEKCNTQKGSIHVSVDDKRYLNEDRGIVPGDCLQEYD

Rvs167, P39743 = settings: median of control spots 2707
Bzz1-2, P38822 = target: T21, Bzz1-2, P38822; settings: median of control spots 4538
T21 sequence (P38822 568-633, looked up): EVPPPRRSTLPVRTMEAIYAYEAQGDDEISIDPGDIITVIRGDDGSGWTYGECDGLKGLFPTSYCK

Myo3, P36006 = settings: median of control spots 468
Sho1, P40073 = settings: median of control spots 1148
Sequence of Sho1, P40073 (P40073 287-367): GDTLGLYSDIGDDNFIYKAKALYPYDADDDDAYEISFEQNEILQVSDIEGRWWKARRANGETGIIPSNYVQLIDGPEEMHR

Sequence of Rvs167, P39743 (P39743 419-482): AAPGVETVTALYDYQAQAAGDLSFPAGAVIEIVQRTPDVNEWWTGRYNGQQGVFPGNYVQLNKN
Sequence of Bem1-1, P29366 (P29366 55-141): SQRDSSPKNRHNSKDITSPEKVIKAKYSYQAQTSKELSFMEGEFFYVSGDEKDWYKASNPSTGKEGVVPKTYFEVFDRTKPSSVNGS
Sequence of Bem1-2, P29366 (P29366 139-227): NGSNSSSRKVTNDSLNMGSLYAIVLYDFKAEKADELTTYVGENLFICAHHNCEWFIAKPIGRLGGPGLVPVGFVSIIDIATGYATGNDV

## DLFKPLPEPPTELGR
Bud14, P27637
  SPOT intensity: 0
Lsb1, P53281
  SPOT intensity: 0
Pin3, Q06449
  SPOT intensity: 0
Lsb3, P43603
  SPOT intensity: 6
GST
  SPOT intensity: 0
Cyk3, Q07533
  SPOT intensity: 0
Cdc25, P04821
  SPOT intensity: 0
Abp1, P15891
  SPOT intensity: 0
Hof1, Q05080
  SPOT intensity: 2
Bzz1-1, P38822
  SPOT intensity: 0
Nbp2, Q12163
  SPOT intensity: 0
Lsb4, P32793
  SPOT intensity: 0
Hse1, P38753
  SPOT intensity: 1
Sla1-3, P32790
  SPOT intensity: 0
Boi2, P39969
  SPOT intensity: 0
Myo5, Q04439
  SPOT intensity: 0
Boi1, P38041
  SPOT intensity: 0
Bem1-1, P29366
  SPOT intensity: 0
Bem1-2, P29366
  SPOT intensity: 0
Sla1-2, P32790
  SPOT intensity: 0
Pex13, P80667
  SPOT intensity: 47
Bbc1, P47068
  SPOT intensity: 0
Fus1, P11710
  SPOT intensity: 0
Rvs167, P39743
  SPOT intensity: 0
Bzz1-2, P38822
  SPOT intensity: 0
Myo3, P36006
  SPOT intensity: 0
Sho1, P40073
  SPOT intensity: 1320

## NLKKRPPTAPQRKIS
Bud14, P27637
  SPOT intensity: 25
Lsb1, P53281
  SPOT intensity: 8
Pin3, Q06449
  SPOT intensity: 7
Lsb3, P43603
  SPOT intensity: 45
GST
  SPOT intensity: 2
Cyk3, Q07533
  SPOT intensity: 2
Cdc25, P04821
  SPOT intensity: 203
Abp1, P15891
  SPOT intensity: 564
Hof1, Q05080
  SPOT intensity: 28
Bzz1-1, P38822
  SPOT intensity: 22
Nbp2, Q12163
  SPOT intensity: 48
Lsb4, P32793
  SPOT intensity: 141
Hse1, P38753
  SPOT intensity: 157
Sla1-3, P32790
  SPOT intensity: 161
Boi2, P39969
  SPOT intensity: 0
Myo5, Q04439
  SPOT intensity: 3
Boi1, P38041
  SPOT intensity: 15
Bem1-1, P29366
  SPOT intensity: 0
Bem1-2, P29366
  SPOT intensity: 51
Sla1-2, P32790
  SPOT intensity: 3
Pex13, P80667
  SPOT intensity: 13
Bbc1, P47068
  SPOT intensity: 31
Fus1, P11710
  SPOT intensity: 8
Rvs167, P39743
  SPOT intensity: 18
Bzz1-2, P38822
  SPOT intensity: 324
Myo3, P36006
  SPOT intensity: 20
Sho1, P40073
  SPOT intensity: 229

## KKEKKPPKIPKKVYT
Bud14, P27637
  SPOT intensity: 0
Lsb1, P53281
  SPOT intensity: 0
Pin3, Q06449
  SPOT intensity: 1
Lsb3, P43603
  SPOT intensity: 0
GST
  SPOT intensity: 3
Cyk3, Q07533
  SPOT intensity: 1
Cdc25, P04821
  SPOT intensity: 3
Abp1, P15891
  SPOT intensity: 161
Hof1, Q05080
  SPOT intensity: 4
Bzz1-1, P38822
  SPOT intensity: 0
Nbp2, Q12163
  SPOT intensity: 0
Lsb4, P32793
  SPOT intensity: 0
Hse1, P38753
  SPOT intensity: 12
Sla1-3, P32790
  SPOT intensity: 12
Boi2, P39969
  SPOT intensity: 3
Myo5, Q04439
  SPOT intensity: 0
Boi1, P38041
  SPOT intensity: 0
Bem1-1, P29366
  SPOT intensity: 1
Bem1-2, P29366
  SPOT intensity: 4
Sla1-2, P32790
  SPOT intensity: 0
Pex13, P80667
  SPOT intensity: 0
Bbc1, P47068
  SPOT intensity: 0
Fus1, P11710
  SPOT intensity: 3
Rvs167, P39743
  SPOT intensity: 0
Bzz1-2, P38822
  SPOT intensity: 18
Myo3, P36006
  SPOT intensity: 0
Sho1, P40073
  SPOT intensity: 16

## AATTSTPPLPRRRAT
Bud14, P27637
  SPOT intensity: 1
Lsb1, P53281
  SPOT intensity: 243
Pin3, Q06449
  SPOT intensity: 35
Lsb3, P43603
  SPOT intensity: 877
GST
  SPOT intensity: 1
Cyk3, Q07533
  SPOT intensity: 1
Cdc25, P04821
  SPOT intensity: 4
Abp1, P15891
  SPOT intensity: 109
Hof1, Q05080
  SPOT intensity: 5
Bzz1-1, P38822
  SPOT intensity: 0
Nbp2, Q12163
  SPOT intensity: 0
Lsb4, P32793
  SPOT intensity: 1360
Hse1, P38753
  SPOT intensity: 2
Sla1-3, P32790
  SPOT intensity: 0
Boi2, P39969
  SPOT intensity: 2
Myo5, Q04439
  SPOT intensity: 0
Boi1, P38041
  SPOT intensity: 0
Bem1-1, P29366
  SPOT intensity: 0
Bem1-2, P29366
  SPOT intensity: 0
Sla1-2, P32790
  SPOT intensity: 0
Pex13, P80667
  SPOT intensity: 364
Bbc1, P47068
  SPOT intensity: 103
Fus1, P11710
  SPOT intensity: 0
Rvs167, P39743
  SPOT intensity: 2280
Bzz1-2, P38822
  SPOT intensity: 0
Myo3, P36006
  SPOT intensity: 31
Sho1, P40073
  SPOT intensity: 38
